On to “FcγRIIIa-dimer, biotinylated (from UniProt P08637 17-254) (receptor)”, for which the NK cell activation (CD107 and IFNγ expression) by antigen-bound antibody, against the WT plant antibody with S15-HDEL (human) and with S15-FX (human) was 3 fold each time.

The values above are taken from PMC11672753.

Chain of S15-HDEL (human) (heavy, as listed by the source, chain 1 of 2): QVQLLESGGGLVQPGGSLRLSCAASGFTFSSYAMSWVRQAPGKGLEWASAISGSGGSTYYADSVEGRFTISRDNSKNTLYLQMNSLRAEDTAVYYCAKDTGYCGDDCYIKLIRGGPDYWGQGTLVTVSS
Chain of S15-HDEL (human) (light, as listed by the source, chain 2 of 2): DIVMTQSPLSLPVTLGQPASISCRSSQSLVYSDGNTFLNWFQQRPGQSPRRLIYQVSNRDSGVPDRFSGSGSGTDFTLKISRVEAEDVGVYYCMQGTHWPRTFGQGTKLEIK
Chain of S15-FX (human) (heavy, as listed by the source, chain 1 of 2): as the sequence (heavy, as listed by the source, chain 1 of 2) above
Chain of S15-FX (human) (light, as listed by the source, chain 2 of 2): as the sequence (light, as listed by the source, chain 2 of 2) above
